Results published in US20120009123A1, “Albumin binding peptide-mediated disease targeting” (ABRAXIS BIOSCIENCE, LLC, priority 2008, published 2012).
In brackets after ≈: the same amount, converted by molar mass. One block for each molecule: values may come before it.

Legend:
[1] = target: human serum albumin (HSA) (Homo sapiens, UniProt P02768); test: peptide phage display library screening (panning); type: binding; conditions: for assessment of sequence after fourth round of panning: about 100 plaques sequenced, FIG. 11
Procedure: A commercial peptide phage display library (12-mer peptides in M13) was screened for peptides which bind to human serum albumin (HSA) (see FIG. 10). Four rounds of panning were completed as follows:
1. The phage library was screened by coating a 100 ug/ml HSA solution onto the wells of 12-well plate and exposing the wells to 1-2×1011 pfu phage. Bound phage were eluted with a 0.2M Glycine, pH2.2 buffer to yield 15×10^5 pfu/ml (which became 5×1013 pfu/ml after amplification);
2. The second panning was eluted with a 0.2M Glycine, pH 2.2 buffer to yield 12×10^6 pfu/ml (8×1013 pfu/ml after amplification);
3. The third panning was eluted with 250 ug/ml HSA for 1 hr to yield 5×10^5 pfu/ml (2×1012 pfu/ml after amplification); and
4. a fourth panning was eluted with a 0.2M Glycine, pH2.2 buffer to yield 14×10^8 pfu/ml. After the fourth round of panning, about 100 plaques were selected, amplified and sequenced.

[2] = tested on: squamous cervix (A431) line; test: cells; conditions: Homo sapiens, A-431, read-out: IC50, in vitro cytotoxicity
[3] = target: binding of albumin to SPARC (Homo sapiens, UniProt P02768); test: competitive binding assays with SPARC C-terminal cysteine-poor domain peptides; conditions: general statement in the description
Procedure: The 15 mer SPARC C-terminal, cysteine-poor domain-spanning peptides were used in competitive binding assays. Specifically, the SPARC peptides were immobilized onto PVDF-attached 96 well plate in an overnight incubation at 4° C. (5 μg/well). The next day the plate was washed with DPBS and blocked for an hour with 5% Non-fat dry milk in DPBS. Next, 100 μl of DPBS was added to each well except the wells in first row. A vial of Alexa 488-BSA (5 mg) was dissolved with 1.2 ml of 25% HSA. Then, 100 μl of BSA-HSA was mixed with 100 μl of SPARC peptides prepared as 4 mg/ml in DPBS (resulting in a final concentration of the Alexa 488-BSA and peptides in first row of about 200 ug/well each). Serial dilution was made down to each column. The plate was incubated for an hour in a dark place, was washed, and the fluorescence was read. […] To further localize the SPARC albumin binding site SPARC sub-fragments were made (FIG. 8). In particular, peptides #103 ([…]) (SEQ ID NO: 66) and #104 ([…]) are subfragments of the sole active peptide, peptide #47.

albumin binding to SPARC = target: T1, albumin binding to SPARC (Homo sapiens, UniProt P09486); test: follow-up competitive studies of albumin binding to SPARC
T1 construct: Full length, wild-type SPARC (“WT”)
T1 sequence (P09486 18-303): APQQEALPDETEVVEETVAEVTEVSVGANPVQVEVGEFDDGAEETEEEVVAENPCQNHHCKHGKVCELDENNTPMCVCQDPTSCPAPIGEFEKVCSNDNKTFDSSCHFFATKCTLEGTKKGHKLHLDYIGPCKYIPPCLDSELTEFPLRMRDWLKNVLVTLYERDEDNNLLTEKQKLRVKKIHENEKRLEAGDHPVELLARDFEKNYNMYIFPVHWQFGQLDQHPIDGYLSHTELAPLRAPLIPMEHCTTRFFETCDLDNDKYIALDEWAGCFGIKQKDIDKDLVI

[4] = tested on: human serum albumin spiked with Alexa fluor 488 conjugated bovine serum albumin; test: SPARC-albumin interaction: SPARC immobilized on PVDF, fluorescent albumin binding; conditions: for albumin binding: polypeptide immobilized 5 μg/well on PVDF, FIG. 2
Procedure: Full length, wild-type SPARC (“WT”), a SPARC deletion mutant in which the glutamine at residue 3 is deleted (“Q3”) or SPARC treated with Cathepsin K were immobilized on PVDF membrane and exposed to decreasing concentrations of human serum albumin spiked with Alexa fluor 488 conjugated bovine serum albumin.
In the initial experiment, full length, wild-type SPARC and “Q3” mutant SPARC polypeptides were immobilized onto PVDF-attached 96 well plate by overnight at 4° C. incubation (5 μg/well). The next day the plate was washed with DPBS and blocked for an hour with 5% non-fat dry milk in DPBS. 100 μl of DPBS was added to each well. A vial of Alexa 488-BSA (5 mg) was dissolved with 1.2 ml of 25% Human Serum Albumin (“HSA”) and 100 μl of BSA-HSA mix was added to wells of first row of plate (resulting in a final concentration of Alexa 488-BSA in first row becomes about 200 μg/well). Serial dilutions were made down each column and the plate was incubated for an hour in a dark place. After 1 hr incubation, the membrane was washed with PBS and the amount of albumin remained quantified by fluorescent plate reader.
Thirty μg of recombinant human (“rh”) SPARC was incubated with 0.4 μg of Cathepsin K for 10, 30, 60 and 120 minutes. […] Accordingly, overlapping 15 mer peptides were prepared which spanned the SPARC C-terminal, cysteine-poor domain (FIG. 6).

human serum albumin = target: T2, human serum albumin (human, UniProt P02768 25-609); test: M13 12-mer phage display, four rounds of panning on coated HSA, sequencing of about 100 plaques
T2 construct: also called HSA; human albumin

Molecule: KNHGATRTTRAS [SEQ ID NO: 2, called Peptide 47 in b190]
assessment of sequence after fourth round of panning [1]: probably be a true ligand | binding to human albumin ([1]; general statement in the description): binds human albumin with great avidity

Molecule: WPHHHHTRLSTV
assessment of sequence after fourth round of panning [1]: nonspecific binding

Molecule: CC(=O)O[C@H]1C(=O)[C@@]2(C)[C@H]([C@H](OC(=O)c3ccccc3)[C@]3(O)C[C@H](OC(=O)[C@H](O)[C@@H](NC(=O)c4ccccc4)c4ccccc4)C(C)=C1C3(C)C)[C@]1(OC(C)=O)CO[C@@H]1C[C@@H]2O [TAX]
IC50 [2]: 0.012 µg/mL (≈ 0.0141 µM)

Molecule: KNHGATRTTRAS [KNHGATRTTRAS (Peptide 47; SEQ ID NO: 2)]
binding result (human serum albumin): binds

Second part, the molecule after the results:

binding to human albumin [3]: binds human albumin with great avidity
Molecule: MYIFPVHWQFGQLDQ [peptide #47, 15 mer, amino acids 209-223 of the human SPARC protein]

IC50 of albumin binding to SPARC (albumin binding to SPARC): 5% | albumin binding after cathepsin K digest ([4]; cathepsin K digest 60 min, FIG. 5): obliterated | albumin binding [4]: bind albumin
B1: SPARC: Secreted Protein, Acidic, Rich in Cysteines; full length, wild-type, 303 amino acid glycoprotein (protein)
chain: T1 sequence (P09486 18-303)

albumin binding [4]: bind albumin
B2: Q3: SPARC deletion mutant in which the glutamine at residue 3 is deleted (protein)
chain: APQEALPDETEVVEETVAEVTEVSVGANPVQVEVGEFDDGAEETEEEVVAENPCQNHHCKHGKVCELDENNTPMCVCQDPTSCPAPIGEFEKVCSNDNKTFDSSCHFFATKCTLEGTKKGHKLHLDYIGPCKYIPPCLDSELTEFPLRMRDWLKNVLVTLYERDEDNNLLTEKQKLRVKKIHENEKRLEAGDHPVELLARDFEKNYNMYIFPVHWQFGQLDQHPIDGYLSHTELAPLRAPLIPMEHCTTRFFETCDLDNDKYIALDEWAGCFGIKQKDIDKDLVI
